In patent publication US20240092937A1 (HUMMINGBIRD BIOSCIENCE HOLDINGS PTE, published 2024):

Key:
[1] = target: human HER3 expressed on cells (human) (UniProt P21860); assay: flow cytometry, HEK293 cells overexpressing human HER3, 20 ug/ml antibody, FITC anti-Fc secondary; same antibody on WT HEK293: 8.15
[2] = target: human HER3 expressed on cells (human) (UniProt P21860); assay: flow cytometry, HEK293 cells overexpressing human HER3, 20 ug/ml antibody, FITC anti-Fc secondary; same antibody on WT HEK293: 1.91
[3] = target: human HER3 expressed on cells (human) (UniProt P21860); assay: flow cytometry on HEK293T HER3 O/E cells, '10 ug' antibody as printed (10 µg/ml by paragraph 872), FITC anti-Fc secondary
[4] = target: His-tagged FcγRIIIa (V158) (UniProt P08637); assay: Bio-Layer Interferometry, determined as described in Example 7; receptor row FcgRIIIA (V158)
moFcRn (mouse) = target: T1, moFcRn (mouse) (UniProt Q61559); assay: Bio-Layer Interferometry, determined as described in Example 7
T1 sequence (receptor, looked up): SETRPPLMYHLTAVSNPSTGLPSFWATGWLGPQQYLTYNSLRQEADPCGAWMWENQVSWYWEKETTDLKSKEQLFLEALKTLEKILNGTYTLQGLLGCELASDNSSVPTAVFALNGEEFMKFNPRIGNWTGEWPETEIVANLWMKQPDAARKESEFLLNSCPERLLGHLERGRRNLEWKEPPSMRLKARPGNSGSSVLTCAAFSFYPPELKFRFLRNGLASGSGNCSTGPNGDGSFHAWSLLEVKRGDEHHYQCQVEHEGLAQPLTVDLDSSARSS
T1 sequence (looked up): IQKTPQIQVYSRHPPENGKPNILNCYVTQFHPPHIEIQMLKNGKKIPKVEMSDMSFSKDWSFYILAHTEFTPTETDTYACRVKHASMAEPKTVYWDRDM

FcgRIIIA (F158) (human) = FcgRIIIA (F158) (human) (UniProt P08637); assay: as above
FcRn (human) = FcRn (human) (UniProt P55899); assay: as above
moFcgRIV (mouse) = assay: as above
[5] = target: human HER4 expressed on HEK293 cells (human) (UniProt Q15303); assay: flow cytometry on HEK293 HER4 overexpressing cells, 10 µg/ml antibody
[6] = target: human HER3 expressed on cells (human) (UniProt P21860); assay: flow cytometry, HEK293 cells overexpressing human HER3, 20 ug/ml antibody, FITC anti-Fc secondary; isotype on WT HEK293: 0.07
[7] = target: T2, human HER3 polypeptide, recombinant (His-tagged human HER3) (human, UniProt P21860 20-643, biotinylated in the assays of paragraph 766 and paragraph 908); assay: ELISA on human HER3 polypeptide coated at 0.1 ug/ml
T2 construct: Bought protein (Sino Biological for the ELISAs); also called HER3 His; HER3-biotin

[8] = target: human HER3 polypeptide, recombinant (His-tagged human HER3) (human) (UniProt P21860); assay: plate ELISA dimerisation assay: human EGFR-His coated, HER3-biotin 4 µg/ml and NRG 0.1 µg/ml constant, antibody titrated; blocked interaction EGFR:HER3
FcgRIIA (H167) (human) = assay: Bio-Layer Interferometry, determined as described in Example 7
FcgRIIB (human) = assay: as above
FcgRIIA (R167) (human) = assay: as above
[9] = target: human HER3 polypeptide, recombinant (His-tagged human HER3) (human) (UniProt P21860); assay: BLI (Octet QK384), His-tagged human HER3 on anti-Penta-HIS tips, saturating antibody LJM-716 (400 nM), then competing antibody MM-121 (300 nM)
rat HER3 polypeptide = target: T3, rat HER3 polypeptide (rat, UniProt Q62799 20-643, limits assumed); assay: ELISA, plate coated with 0.1 ug/ml target polypeptide, antibody serially diluted
T3 construct: also called R. norvegicus HER3 homologue
Experimental: (§1) ELISAs were used to determine the binding specificity of the antibodies. […] The antibodies were also analysed for their ability to bind to human EGFR and human HER2 (Sino Biological Inc., China).
(§2) ELISAs were carried out according to standard protocols. Briefly, 96-well plates (Nunc, Denmark) were coated with 0.1 μg/ml of target polypeptide in phosphate-buffered saline (PBS) for 16 h at 4° C. After blocking for 1 h with 1% BSA in Tris buffer saline (TBS) at room temperature, the anti-HER3 antibody was serially diluted with the highest concentration being 10 μg/ml, and added to the plate. Post 1 h incubation at room temperature, plates were washed three times with TBS containing 0.05% Tween 20 (TBS-T) and were then incubated with a HRP-conjugated […] antibody (Life Technologies, Inc., USA) for 1 h at room temperature. After washing, plates were developed with colorimetric detection substrate 3,3′,5,5′-tetramethylbenzidine (Turbo-TMB; Pierce, USA) for 10 min.

[10] = target: T4, human EGFR polypeptide, recombinant (human, UniProt P00533 25-645); assay: as above
T4 construct: also called human HER1 (EGFR); human EGFR-His
Experimental: as §1, §2

[11] = target: human HER2 polypeptide, recombinant (His-tagged HER2 protein) (human, UniProt P04626 23-652); assay: as above
Experimental: as §1, §2

mouse HER3 polypeptide = target: T5, mouse HER3 polypeptide (mouse, UniProt Q61526 20-641); assay: as above
T5 construct: also called M. musculus HER3 homologue
Experimental: as §1, §2

T5 sequence (Q61526 20-641 limits assumed): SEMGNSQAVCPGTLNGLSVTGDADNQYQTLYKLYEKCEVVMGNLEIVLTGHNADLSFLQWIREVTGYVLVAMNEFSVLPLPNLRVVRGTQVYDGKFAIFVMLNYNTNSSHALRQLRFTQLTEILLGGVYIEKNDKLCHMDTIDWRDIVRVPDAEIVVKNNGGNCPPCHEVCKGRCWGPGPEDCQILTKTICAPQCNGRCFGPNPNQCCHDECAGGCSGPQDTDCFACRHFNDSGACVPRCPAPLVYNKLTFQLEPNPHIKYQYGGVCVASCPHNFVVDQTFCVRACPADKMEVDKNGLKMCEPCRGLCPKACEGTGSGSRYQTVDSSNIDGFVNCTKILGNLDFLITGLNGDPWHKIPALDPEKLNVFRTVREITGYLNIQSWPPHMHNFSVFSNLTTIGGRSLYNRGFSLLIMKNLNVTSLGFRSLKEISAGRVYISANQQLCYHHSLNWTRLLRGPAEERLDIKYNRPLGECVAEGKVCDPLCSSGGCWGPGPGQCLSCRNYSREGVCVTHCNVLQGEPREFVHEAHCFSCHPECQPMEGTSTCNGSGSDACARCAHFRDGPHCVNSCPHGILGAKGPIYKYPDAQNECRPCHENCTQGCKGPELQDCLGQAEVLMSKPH
Chain of FcgRIIA (H167) (human) (P12318 34-217): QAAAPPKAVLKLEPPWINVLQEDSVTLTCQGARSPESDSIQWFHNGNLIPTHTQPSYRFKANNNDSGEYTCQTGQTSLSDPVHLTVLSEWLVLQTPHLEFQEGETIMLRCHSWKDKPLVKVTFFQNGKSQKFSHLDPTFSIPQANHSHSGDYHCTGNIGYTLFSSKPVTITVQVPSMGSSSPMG
Chain of FcgRIIB (human) (P31994 43-217): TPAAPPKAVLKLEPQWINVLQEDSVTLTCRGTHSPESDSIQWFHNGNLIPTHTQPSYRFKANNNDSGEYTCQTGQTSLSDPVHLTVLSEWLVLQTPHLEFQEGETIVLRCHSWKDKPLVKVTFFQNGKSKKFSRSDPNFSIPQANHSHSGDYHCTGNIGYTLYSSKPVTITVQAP
T3 sequence (Q62799 20-643 limits assumed): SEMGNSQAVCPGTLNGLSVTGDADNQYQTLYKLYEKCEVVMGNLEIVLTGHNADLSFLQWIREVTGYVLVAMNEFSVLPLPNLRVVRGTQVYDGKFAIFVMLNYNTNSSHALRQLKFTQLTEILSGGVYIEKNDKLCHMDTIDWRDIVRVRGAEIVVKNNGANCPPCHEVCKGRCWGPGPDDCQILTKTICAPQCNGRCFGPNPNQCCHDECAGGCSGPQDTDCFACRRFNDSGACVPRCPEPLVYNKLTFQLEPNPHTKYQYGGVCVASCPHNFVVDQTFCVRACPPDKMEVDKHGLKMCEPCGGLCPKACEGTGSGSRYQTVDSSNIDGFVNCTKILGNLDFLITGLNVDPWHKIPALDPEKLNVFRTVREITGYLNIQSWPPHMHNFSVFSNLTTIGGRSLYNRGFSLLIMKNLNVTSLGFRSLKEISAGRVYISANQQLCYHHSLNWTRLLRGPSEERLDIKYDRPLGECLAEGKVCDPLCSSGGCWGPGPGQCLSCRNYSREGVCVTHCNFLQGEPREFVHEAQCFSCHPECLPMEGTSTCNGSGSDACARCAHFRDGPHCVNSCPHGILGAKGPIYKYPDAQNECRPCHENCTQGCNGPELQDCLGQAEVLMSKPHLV

## anti-HER3 antibody clone LJM716
[1]
  % Parent (HE3 Positive): 98.7%
[2]
  % Parent (HER3 positive): 99.5%
[3]
  % Parent (HER3 positive gate): 74.4%
[4]
  Kd: 705 nM
moFcRn (mouse)
  Kd: 12.8 nM
FcgRIIIA (F158) (human)
  Kd: 5380 nM
FcRn (human)
  Kd: 16.5 nM
moFcgRIV (mouse)
  Kd: 701 nM
[5]
  % Positive for HER4: 0.27%

## hIgG1 Isotype (antibody)
[3]
  % Parent (HER3 positive gate): 0.18%
[5]
  % Positive for HER4: 0.07%

## Isotype (antibody)
[6]
  % Parent (HER3 positive): 0.12%

B1: anti-HER3 clone 10D1_c90 IgG1 (antibody, V domains shown)
VH: QVQLQESGPGLVKPSQTLFLTCTVSGYSITSGYSWHWIRQHPGKGLEWIGSIRYSGGTDYNPSLKSLVTISVDTSKNQFSLKLSSVTAADTAVYYCARMTTAPWYPFDYWGQGTTVTVSS
VL: DIQMTQSPSSVSASVGDRVTFTCKASQIVGSNVAWYQQKPGKAPEPLIYSASYLYSSVPSRFSGSGSGTEFTMTISSLEPEDFATYYCQQYTTHPLTFGPGTKVEIKR
notes: Humanised 10D1 variant, human IgG1 / kappa
[7]
  EC50 (read off the curve): ~6 ng/mL

B2: anti-HER3 antibody MM-121 (seribantumab) (antibody, INN chains, looked up, human IgG2)
heavy: EVQLLESGGGLVQPGGSLRLSCAASGFTFSHYVMAWVRQAPGKGLEWVSSISSSGGWTLYADSVKGRFTISRDNSKNTLYLQMNSLRAEDTAVYYCTRGLKMATIFDYWGQGTLVTVSSASTKGPSVFPLAPCSRSTSESTAALGCLVKDYFPEPVTVSWNSGALTSGVHTFPAVLQSSGLYSLSSVVTVPSSNFGTQTYTCNVDHKPSNTKVDKTVERKCCVECPPCPAPPVAGPSVFLFPPKPKDTLMISRTPEVTCVVVDVSHEDPEVQFNWYVDGVEVHNAKTKPREEQFNSTFRVVSVLTVVHQDWLNGKEYKCKVSNKGLPAPIEKTISKTKGQPREPQVYTLPPSREEMTKNQVSLTCLVKGFYPSDIAVEWESNGQPENNYKTTPPMLDSDGSFFLYSKLTVDKSRWQQGNVFSCSVMHEALHNHYTQKSLSLSPG
light: QSALTQPASVSGSPGQSITISCTGTSSDVGSYNVVSWYQQHPGKAPKLIIYEVSQRPSGVSNRFSGSKSGNTASLTISGLQTEDEADYYCCSYAGSSIFVIFGGGTKVTVLGQPKAAPSVTLFPPSSEELQANKATLVCLVSDFYPGAVTVAWKADGSPVKVGVETTKPSKQSNNKYAASSYLSLTPEQWKSHRSYSCRVTHEGSTVEKTVAPAECS
[4]
  Kd: 7050 nM
[8]
  IC50: 54.2 nM
FcgRIIA (H167) (human)
  Kd: 222 nM
moFcRn (mouse)
  Kd: 6.69 nM
FcgRIIB (human)
  Kd: 1440 nM
FcRn (human)
  Kd: 11.5 nM
FcgRIIA (R167) (human)
  Kd: 243 nM
[9]
  cell of the competition table (name and unit of the value not given): 0.693
[5]
  % Positive for HER4: 8.73%

B3: anti-HER3 clone 4-35-B4 IgG1 (antibody, V domains shown)
VH: EVQLQQSGAELVKPGASVKLSCTASGFNIKDTYIHWVKQRPDQGLEWIGKIIDPANGNTNYDPKFQGKATITADTSSNTAYLQLSSLSSEDTAVYFCARGLHWGQGTTLTVSS
VL: DIVLTQSPASLAVSLGQRATISCRASKSVSTSGYSYMHWYQQKPGQPPKLLIYLASNLESGVPARFSGSGSGTDFTLNIHPVEEEDAATYYCQHSRELPYTFGGGTKLEIKR
notes: Human IgG1 / kappa chimeric
Rat HER3 polypeptide
  binding result: binds
[10]
  binding result: binds
[11]
  binding result: binds
Mouse HER3 polypeptide
  binding result: binds
